These results are taken from publication PMC11721465.

The target of experiment [1] is TREM2 (19–134) F74D, biotinylated (human) (UniProt Q9NZC2). Description: BLI; biotinylated TREM2 WT or variant immobilised on SA biosensors; C1q 62.5–1000 nM; PBS with 0.1% BSA and 0.005% Tween-20; 1:1 kinetic fits. A general note: Biolayer interferometry detects binding as a change in optical thickness at a sensor tip.
Experiment [2] has as its target TREM2 (19–134) L71D, biotinylated (human) (UniProt Q9NZC2). The experiment is described as above.
The target of experiment [3] is TREM2 (19–134) L75D, biotinylated (human) (UniProt Q9NZC2). The description is as above.
Sequence of TREM2 (19–134) L75D, biotinylated (human) (Q9NZC2 19-134 L75D): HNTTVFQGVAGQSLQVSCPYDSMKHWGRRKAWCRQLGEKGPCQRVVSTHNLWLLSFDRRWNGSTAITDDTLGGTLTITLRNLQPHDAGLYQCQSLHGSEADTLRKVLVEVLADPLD
Experiment [4] has as its target TREM2 (19–134) M41D, biotinylated (human) (UniProt Q9NZC2). The experiment is described as above.
Experiment [5] has as its target TREM2 (19–134) R122D/K123D, biotinylated (human) (UniProt Q9NZC2). The description is as above.
In experiment [6] the target is TREM2 (19–134) R47H, biotinylated (human) (UniProt Q9NZC2). Described as above.
Sequence of TREM2 (19–134) R47H, biotinylated (human) (Q9NZC2 19-134 R47H): as the sequence (Q9NZC2 19-134 L75D) above, with R29H, D57L counted along it
The target in experiment [7] is TREM2 (19–134) R62H, biotinylated (human) (UniProt Q9NZC2). The description is as above.
Sequence of TREM2 (19–134) R62H, biotinylated (human) (Q9NZC2 19-134 R62H): as the sequence (Q9NZC2 19-134 L75D) above, with R44H, D57L counted along it
Experiment [8] deals with TREM2 (19–134) R76D, biotinylated (human) (UniProt Q9NZC2). The experiment is described as above.
Sequence of TREM2 (19–134) R76D, biotinylated (human) (Q9NZC2 19-134 R76D): as the sequence (Q9NZC2 19-134 L75D) above, with D57L, R58D counted along it
The target in experiment [9] is TREM2 (19–134) T85D, biotinylated (human) (UniProt Q9NZC2). Described as above.
Sequence of TREM2 (19–134) T85D, biotinylated (human) (Q9NZC2 19-134 T85D): as the sequence (Q9NZC2 19-134 L75D) above, with D57L, T67D counted along it
The target in experiment [10] is TREM2 (19–134) WT, biotinylated (human) (UniProt Q9NZC2). Described as above.
Sequence of TREM2 (19–134) WT, biotinylated (human) (Q9NZC2 19-134): as the sequence (Q9NZC2 19-134 L75D) above, with D57L counted along it
The target is the same in experiment [11]. Description: BLI; sequential competition: biotinylated TREM2 WT on SA biosensors dipped into a first ligand or no ligand, then buffer, then a second ligand; binding of the second ligand = response at end minus beginning of Association 2.
The target in experiment [12] is C1q (Homo sapiens) (UniProt P02745). Conditions: cited from earlier work.
Sequence of C1q (Homo sapiens) (P02745 23-245, chain 1 of 3): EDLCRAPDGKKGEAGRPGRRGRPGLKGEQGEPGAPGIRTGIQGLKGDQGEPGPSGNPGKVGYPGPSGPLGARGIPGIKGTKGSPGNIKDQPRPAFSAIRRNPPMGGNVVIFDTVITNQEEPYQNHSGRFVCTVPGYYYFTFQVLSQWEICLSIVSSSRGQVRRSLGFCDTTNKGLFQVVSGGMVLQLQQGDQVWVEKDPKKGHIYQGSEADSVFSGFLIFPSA
Sequence of C1q (Homo sapiens) (P02746 28-253, chain 2 of 3, further chain): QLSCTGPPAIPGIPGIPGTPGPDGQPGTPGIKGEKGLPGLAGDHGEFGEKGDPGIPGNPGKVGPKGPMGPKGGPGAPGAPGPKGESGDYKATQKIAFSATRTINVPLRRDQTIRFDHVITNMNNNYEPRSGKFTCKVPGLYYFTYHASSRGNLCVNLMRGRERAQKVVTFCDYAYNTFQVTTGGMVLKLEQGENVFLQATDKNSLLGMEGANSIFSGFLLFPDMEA
Sequence of C1q (Homo sapiens) (P02747 29-245, chain 3 of 3, further chain): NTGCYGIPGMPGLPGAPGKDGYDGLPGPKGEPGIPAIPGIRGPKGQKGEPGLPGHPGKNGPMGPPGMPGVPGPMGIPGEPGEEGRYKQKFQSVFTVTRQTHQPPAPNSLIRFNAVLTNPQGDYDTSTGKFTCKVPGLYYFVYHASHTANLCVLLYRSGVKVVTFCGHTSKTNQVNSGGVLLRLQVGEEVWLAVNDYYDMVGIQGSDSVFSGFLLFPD
In experiment [13] the target is TREM2 (19–134) D87N, biotinylated (human) (UniProt Q9NZC2). The experiment in a line: BLI; biotinylated TREM2 WT or variant immobilised on streptavidin (SA) biosensors; apoE in solution (apoE4 0.012–50 µM); PBS with 0.1% BSA and 0.005% Tween-20; double-reference subtraction; steady-state analysis.
Sequence of TREM2 (19–134) D87N, biotinylated (human) (Q9NZC2 19-134 D87N): as the sequence (Q9NZC2 19-134 L75D) above, with D57L, D69N counted along it

Sequence of TREM2 (19–134) L71D, biotinylated (human) (Q9NZC2 19-134 L71D): as the sequence (Q9NZC2 19-134 L75D) above, with L53D, D57L counted along it
Sequence of TREM2 (Q9NZC2 19-174): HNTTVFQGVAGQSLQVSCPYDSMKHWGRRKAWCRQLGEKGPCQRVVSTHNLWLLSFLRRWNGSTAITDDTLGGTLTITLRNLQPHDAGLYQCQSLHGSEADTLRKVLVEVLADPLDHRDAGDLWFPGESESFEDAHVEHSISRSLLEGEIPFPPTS
Sequence of TREM2 (19–134) R122D/K123D, biotinylated (human) (Q9NZC2 19-134 R122D/K123D): as the sequence (Q9NZC2 19-134 L75D) above, with D57L, R104D, K105D counted along it
Sequence of TREM2 (19–134) F74D, biotinylated (human) (Q9NZC2 19-134 F74D): as the sequence (Q9NZC2 19-134 L75D) above, with F56D, D57L counted along it
Sequence of TREM2 (19–134) M41D, biotinylated (human) (Q9NZC2 19-134 M41D): as the sequence (Q9NZC2 19-134 L75D) above, with M23D, D57L counted along it

Consider Complement C1q (complex), for which the Kd was 110 nM in experiment [1]; 58 nM in [2]; 110 nM in experiment [3]; 2540 nM in experiment [4]; 820 nM in experiment [5]; 180 nM in [6]. Besides, the Kd in experiment [7] was 1660 nM; in experiment [8] it was 13800 nM; in experiment [9] it was 110 nM; in [10], 650 nM. The substance also came in with a percent decrease of apoE4 (500 nM) binding to TREM2 after pre-binding 1000 nM C1q in experiment [11] of 3%. The substance also yielded a percent inhibition of oAβ42 (500 nM) binding to TREM2 after pre-binding 1000 nM C1q in experiment [11] of 22%.

On to TREM2 (from UniProt Q9NZC2), for which the Kd in [12] was 7.35 nM.

Turning to “apolipoprotein E2 (from UniProt P02649 19-317) (ligand)”, the Kd in experiment [13] is 52 nM.

In [11], “apolipoprotein E4 (from UniProt P02649 19-317) (ligand)” showed a percent reduction of oAβ42 (500 nM) binding to TREM2 after pre-binding 10 µM apoE4 of 67%.

The term Kd denotes the concentration at which binding is half-saturated.
